Data published in US20180016581.
Where two headings read alike, the source gives them in different places.

Tests used:
[1] = biological target: GDF8 (myostatin), mature (Homo sapiens) (UniProt O14793); conditions: TrpdU at each W (n in listing)
[2] = biological target: T1, GDF11, mature (Homo sapiens) (UniProt O95390); conditions: TrpdU at each W (n in listing)
T1 sequence: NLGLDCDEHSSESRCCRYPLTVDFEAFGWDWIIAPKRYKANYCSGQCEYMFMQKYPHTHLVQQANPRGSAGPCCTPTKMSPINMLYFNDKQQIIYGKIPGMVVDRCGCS

Sequence of GDF8 (myostatin), mature (Homo sapiens) (O14793 267-375): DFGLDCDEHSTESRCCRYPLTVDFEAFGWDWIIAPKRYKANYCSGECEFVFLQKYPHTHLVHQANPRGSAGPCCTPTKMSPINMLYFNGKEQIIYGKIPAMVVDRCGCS

Row | Sequence | Kd ([1]; with Z-block) [nM] | Kd ([2]; with Z-block) [nM] | Kd ([2]; 0.1 uM Z-block, low binding plateau) [nM] | Kd ([1]; 0.1 uM Z-block, 1.32E-10 M in p223) [nM]
1 | TGTTAGAGTCCTTTATGAGTCTAG [14583-49_29] | 0.228 | – | – | –
2 | CTCTGAACTTCTAATGTCTCTTGCATTTTATCGCATTGATTTCTCCAACA [14583-19_3] | 1.16 | 0.42 | – | –
3 | CTCTGATACGGCCTTAGTGTTAGAGTCCTTTATGAGTCTAGACCACAACA [14583-49_3] | – | – | 1.11 | 0.13
